Measured values reported in PMC4200526.

Biological target: toluene 4-monooxygenase hydroxylase (T4moH), (TmoA-TmoB-TmoE)2, with C-terminally truncated TmoA and TmoE (UniProt Q00456)
Sequence of UniProt Q00456 (Q00456 1-491, chain 1 of 3): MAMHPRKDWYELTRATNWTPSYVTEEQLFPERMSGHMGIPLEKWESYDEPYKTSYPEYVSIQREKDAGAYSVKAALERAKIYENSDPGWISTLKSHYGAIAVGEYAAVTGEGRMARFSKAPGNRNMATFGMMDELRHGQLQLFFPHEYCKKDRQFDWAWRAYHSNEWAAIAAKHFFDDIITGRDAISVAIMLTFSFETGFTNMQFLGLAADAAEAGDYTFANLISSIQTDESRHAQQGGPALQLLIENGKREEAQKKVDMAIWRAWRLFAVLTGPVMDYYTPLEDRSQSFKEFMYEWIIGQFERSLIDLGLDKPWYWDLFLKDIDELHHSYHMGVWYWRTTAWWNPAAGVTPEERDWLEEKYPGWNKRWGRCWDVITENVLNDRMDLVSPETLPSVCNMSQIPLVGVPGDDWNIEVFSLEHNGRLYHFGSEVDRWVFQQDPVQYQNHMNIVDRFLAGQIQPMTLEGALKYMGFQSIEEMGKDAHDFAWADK
Sequence of UniProt Q00456 (Q00457 whole entry, chain 2 of 3, further chain, the tested form may be a part): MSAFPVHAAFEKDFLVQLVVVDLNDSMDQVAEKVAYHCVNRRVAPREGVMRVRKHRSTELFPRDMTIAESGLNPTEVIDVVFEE
Sequence of UniProt Q00456 (Q00460 1-306, chain 3 of 3, further chain): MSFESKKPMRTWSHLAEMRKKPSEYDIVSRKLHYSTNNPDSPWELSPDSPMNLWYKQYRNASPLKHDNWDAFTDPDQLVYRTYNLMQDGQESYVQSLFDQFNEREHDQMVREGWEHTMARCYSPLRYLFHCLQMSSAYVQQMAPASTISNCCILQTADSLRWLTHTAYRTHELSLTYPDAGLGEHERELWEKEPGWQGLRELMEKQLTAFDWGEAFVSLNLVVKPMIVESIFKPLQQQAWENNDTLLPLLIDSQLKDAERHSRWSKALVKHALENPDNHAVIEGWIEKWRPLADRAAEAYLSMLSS

T4moC, Rieske-type ferredoxin of toluene 4-monooxygenase, Cys7Ser/Cys84Ala/Cys85Ala variant (used for 4P1C) (from UniProt Q00458 8-112) (natural protein)
apparent KM for T4moC in steady-state toluene hydroxylation (4 uM T4moH, 0.4 uM T4moF), before the increase caused by T4moD: 3 µM
apparent KM for T4moC in steady-state toluene hydroxylation (4 uM T4moH, 0.4 uM T4moF), increased by inhibiting T4moD: 16 µM
